Measurements from IntAct's records for PubMed 16137684.

B1: Thyroid receptor-interacting protein 6 (Homo sapiens), Q15654 (parent)
chain: MSGPTWLPPKQPEPARAPQGRAIPRGTPGPPPAHGAALQPHPRVNFCPLPSEQCYQAPGGPEDRGPAWVGSHGVLQHTQGLPADRGGLRPGSLDAEIDLLSSTLAELNGGRGHASRRPDRQAYEPPPPPAYRTGSLKPNPASPLPASPYGGPTPASYTTASTPAGPAFPVQVKVAQPVRGCGPPRRGASQASGPLPGPHFPLPGRGEVWGPGYRSQREPGPGAKEEAAGVSGPAGRGRGGEHGPQVPLSQPPEDELDRLTKKLVHDMNHPPSGEYFGQCGGCGEDVVGDGAGVVALDRVFHVGCFVCSTCRAQLRGQHFYAVERRAYCEGCYVATLEKCATCSQPILDRILRAMGKAYHPGCFTCVVCHRGLDGIPFTVDATSQIHCIEDFHRKFAPRCSVCGGAIMPEPGQEETVRIVALDRSFHIGCYKCEECGLLLSSEGECQGCYPLDGHILCKACSAWRIQELSATVTTDC

Tests used:
Conditions in all cases: with scrib_human SCRIB
[1] = variants of: B1
[2] = variants of: B1; remark: listed apart in the source
[3] = variants of: B1; remark: listed apart in the source
[4] = variants of: B1; remark: listed apart in the source

Variant | effect of a mutation on the interaction [1] | effect of a mutation on the interaction [2] | effect of a mutation on the interaction [3] | effect of a mutation on the interaction [4]
MSGPTWLPPKQPEPARAPQGRAIPRGTPGPPPAHGAALQPHPRVNFCPLPSEQCYQAPGGPEDRGPAWVGSHGVLQHTQGLPADRGGLRPGSLDAEIDLLSSTLAELNGGRGHASRRPDRQAYEPPPPPAYRTGSLKPNPASPLPASPYGGPTPASYTTASTPAGPAFPVQVKVAQPVRGCGPPRRGASQASGPLPGPHFPLPGRGEVWGPGYRSQREPGPGAKEEAAGVSGPAGRGRGGEHGPQVPLSQPPEDELDRLTKKLVHDMNHPPSGEYFGQCGGCGEDVVGDGAGVVALDRVFHVGCFVCSTCRAQLRGQHFYAVERRAYCEGCYVATLEKCATCSQPILDRILRAMGKAYHPGCFTCVVCHRGLDGIPFTVDATSQIHCIEDFHRKFAPRCSVCGGAIMPEPGQEETVRIVALDRSFHIGCYKCEECGLLLSSEGECQGCYPLDGHILCKACSAWRIQELSATVTADC [T474A] | disrupting interaction | decreasing interaction | – | –
MSGPTWLPPKQPEPARAPQGRAIPRGTPGPPPAHGAALQPHPRVNFCPLPSEQCYQAPGGPEDRGPAWVGSHGVLQHTQGLPADRGGLRPGSLDAEIDLLSSTLAELNGGRGHASRRPDRQAYEPPPPPAYRTGSLKPNPASPLPASPYGGPTPASYTTASTPAGPAFPVQVKVAQPVRGCGPPRRGASQASGPLPGPHFPLPGRGEVWGPGYRSQREPGPGAKEEAAGVSGPAGRGRGGEHGPQVPLSQPPEDELDRLTKKLVHDMNHPPSGEYFGQCGGCGEDVVGDGAGVVALDRVFHVGCFVCSTCRAQLRGQHFYAVERRAYCEGCYVATLEKCATCSQPILDRILRAMGKAYHPGCFTCVVCHRGLDGIPFTVDATSQIHCIEDFHRKFAPRCSVCGGAIMPEPGQEETVRIVALDRSFHIGCYKCEECGLLLSSEGECQGCYPLDGHILCKACSAWRIQELSATVTTDA [C476A] | – | – | disrupting interaction | decreasing interaction
